Reference: the supplement of paper PMC7877785
± gives the uncertainty stated by the source.

Experiment: self-splicing fitness, log relative to wild type (ln ratio); higher = more splicing; Tetrahymena group I intron in knt gene, E. coli kanamycin selection, DiMSum; sequences stand for … in CUCUCU…GGAGGGAAAAGUUAUCAGGCAUGCACCUGGUAGCUAGUCUUUAAACCAAUAGAUUGCAUCGGUUUAAAAGGCAAGACCGUCAAAUUGCGGGAAAGGGGUCAACAGCCGUUCAGUACCAAGUCUCAGGGGAAACUUUGAGAUGGCCUUGCAAAGGGUAUGGUAAUAAGCUGACGGACAUGGUCCUAACCACGCAGCCAAGUCCUAAGUCAACAGAUCUUCUGUUGAUAUGGAUGCAGUUCACAGACUAAAUGUCGGUCGGGGAAGAUGUAUUCUUCUCAUAAGAUAUAGUCGGACCUCUCCUUAAUGGGAGCUAGCGGAUGAAGUGAUGCAACACUGGAGCCGCUGGGAACUAAUUUGUAUGCGAAAGUAUAUUGAUUAGUUUUGGAGUACUCGUGGUCG
Outline: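 DiMSum derived fitness as the error-weighted combination of fold changes across replicates, kanamycin versus no kanamycin, normalised to wild type. E. coli BL21(DE3) held the library, which randomised all eight P1ex-region intron nucleotides within the knt kanamycin-resistance gene on pET-22b(+). Six replicate transformations grew overnight at 37°C or 30°C on LB agar with or without 25 μg/mL kanamycin, also containing 100 μg/mL carbenicillin, 50 μM IPTG and 0.2% rhamnose, and pooled colonies were amplicon-sequenced on an Illumina HiSeq 2500.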

| Sequence | self-splicing fitness (ln) (30 °C) | self-splicing fitness (ln) (37 °C) |
| --- | --- | --- |
| UGUAAGCAAUAUUACGUUAC | -2.91 ± 0.22 | -3.12 ± 0.37 |
| GCUAAGCAAUAUUACGUUCU | -1.04 ± 0.052 | -0.467 ± 0.066 |
| AUACAGCAAUAUUACGGCUG | -1.95 ± 0.13 | -2.6 ± 0.23 |
| UUCUAGCAAUAUUACGAGGA | -2.56 ± 0.25 | -1.4 ± 0.25 |
| GUUGAGCAAUAUUACGUAAU | -1.76 ± 0.093 | -0.913 ± 0.12 |
| UUCUAGCAAUAUUACGGACC | -1.51 ± 0.3 | – |
| AAGCAGCAAUAUUACGCAAU | -1.23 ± 0.085 | -1.22 ± 0.091 |
| UGCUAGCAAUAUUACGCGAA | -2.97 ± 0.32 | -1.88 ± 0.21 |
| CGGUAGCAAUAUUACGUGCG | -1.41 ± 0.12 | -0.87 ± 0.12 |
| AAAAAGCAAUAUUACGUGGU | -3.26 ± 0.11 | -2.74 ± 0.12 |
| AACCAGCAAUAUUACGUUAA | -1.83 ± 0.086 | -1.26 ± 0.085 |
| ACUGAGCAAUAUUACGAUUG | – | -3.25 ± 0.37 |
| AUACAGCAAUAUUACGAAGG | -3.3 ± 0.24 | -2.87 ± 0.28 |
| AAAUAGCAAUAUUACGCUGG | -1.94 ± 0.13 | -1.15 ± 0.17 |
| AUUUAGCAAUAUUACGGCUC | -0.153 ± 0.097 | 0.0525 ± 0.11 |
| GGCGAGCAAUAUUACGCUCA | -1.02 ± 0.11 | 0.00865 ± 0.12 |
| AUGAAGCAAUAUUACGCAAU | -1.03 ± 0.11 | -0.743 ± 0.12 |
| CGCCAGCAAUAUUACGCCGA | -2.87 ± 0.23 | -1.65 ± 0.19 |
| CUGUAGCAAUAUUACGGGUA | -1.96 ± 0.35 | – |
| GCCCAGCAAUAUUACGAUGG | -3.53 ± 0.14 | -2.98 ± 0.18 |

| Sequence | self-splicing fitness (ln) (30 °C) | self-splicing fitness (ln) (37 °C) |
| --- | --- | --- |
| CGAAAGCAAUAUUACGCCGC | – | -2.13 ± 0.36 |
| UUCAAGCAAUAUUACGGUAU | -2.84 ± 0.11 | -1.64 ± 0.11 |
| UGUGAGCAAUAUUACGGUCG | -0.638 ± 0.094 | -0.935 ± 0.12 |
| UCGCAGCAAUAUUACGGAGA | -2.75 ± 0.13 | -1.02 ± 0.1 |
| AUUGAGCAAUAUUACGGGGG | -4.39 ± 0.46 | -3.19 ± 0.31 |
| CGGGAGCAAUAUUACGAGGA | -4.2 ± 0.39 | -2.53 ± 0.28 |
| GUUCAGCAAUAUUACGAACU | -3.89 ± 0.14 | -2.56 ± 0.16 |
| CCCGAGCAAUAUUACGCUGA | -3.44 ± 0.35 | -2.26 ± 0.2 |
| AUAAAGCAAUAUUACGUUCU | 0.0113 ± 0.08 | 0.404 ± 0.12 |
| CGGUAGCAAUAUUACGUAGG | -0.647 ± 0.051 | 0.647 ± 0.08 |
| GAUCAGCAAUAUUACGGCUU | -0.164 ± 0.092 | -0.596 ± 0.1 |
| GCGGAGCAAUAUUACGCCCU | -2.95 ± 0.45 | – |
| GCGGAGCAAUAUUACGUAUA | – | -2.2 ± 0.44 |
| GGAGAGCAAUAUUACGGCUA | -2.06 ± 0.32 | -1.25 ± 0.18 |
| AGGGAGCAAUAUUACGCGCU | -2.13 ± 0.23 | -0.719 ± 0.39 |
| GAAUAGCAAUAUUACGAUGA | -1.2 ± 0.083 | -0.62 ± 0.093 |
| AACGAGCAAUAUUACGUACG | -4.19 ± 0.46 | -1.63 ± 0.35 |
| UAAAAGCAAUAUUACGGUAG | -1.14 ± 0.086 | -0.722 ± 0.097 |
| GAUUAGCAAUAUUACGGACA | -1.06 ± 0.13 | 0.179 ± 0.12 |
